Test results published in patent US20230295329A1 (published 2023).

Biological target: T1, PD-1-His protein (Cat. #10377H08H, Sino Biological) (human, UniProt Q15116 25-167)
T1 construct: Bought reagent; also called huPD-1-his; hu PD-1-his; not shown: His tag of the bought protein
Test: ELISA, PD-1-His coated, HRP goat anti-human IgG detection

T1 sequence (Q15116 25-167 limits assumed): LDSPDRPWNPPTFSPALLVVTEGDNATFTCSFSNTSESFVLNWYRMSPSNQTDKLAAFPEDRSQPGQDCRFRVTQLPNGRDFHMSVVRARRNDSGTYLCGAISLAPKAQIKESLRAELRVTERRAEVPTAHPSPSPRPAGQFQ

OD value MAX	Binder
1.21	H005-1 (antibody, V domains shown) VH: EVQLVESGGGLVQPGGSLRLSCAASGFTFSSYMMSWVRQAPGKGLEWVATISGGGANTYYPDSVKGRFTISRDNAKNSLYLQMNSLRAEDTAVYYCARQLYYFDYWGQGTTVTVSS VL: DIQMTQSPSSLSASVGDRVTITCLASQTIGTWLTWYQQKPGKAPKLLIYTATSLADGVPSRFSGSGSGTDFTLTISSLQPEDFATYYCQQVYSIPWTFGGGTKVEIKR
1.26	Hu32a-85.IgG4AA (antibody, V domains shown, Full-length IgG4-AA (S228P, F234A, L235A) antibody with kappa light chain) VH: EVQLVQSGAEVKKPGSSVKVSCKASDFTFTDYEIHWVKQAPGHGLEWIGLFDPETGGIVYNQKFKGKATLTADKSTSTAYMEFSSLRSEDTAVYYCTREGYNRDWYFDVWGQGTTVTVSS VL: DIVMTQTPLSLPVTPGEPASISCRSSQSLVHSTGNTYLEWYLQKPGQSPQLLIYKVSNRFSGVPDRFSGSGSGTDFTLKISRVEAEDVGVYYCFQGSHVPYTFGGGTKVEIKR
1.46	Hu23-11.IgG4AA (antibody, V domains shown, Full-length IgG4-AA (S228P, F234A, L235A) antibody with kappa light chain; LCDR1 mutant N28T (Kabat)) VH: EVQLVQSGAEVKKPGSSVKVSCKASGGTFSDYEMHWVRQAPGQGLEWMGLIDPETGGTVYNQKFKDRVTITADKSTSTAYMELSSLRSEDTAVYYCARERFSYYGSTSDWYFDVWGQGTTVTVSS VL: DIVMTQTPLSLPVTPGEPASISCRSSQSLVHSTGNTYLEWYLQKPGQSPQLLIYKVSNRFSGVPDRFSGSGSGTDFTLKISRVEAEDVGVYYCFQGSHVPYTFGGGTKVEIKR
